Data from US20230372522A1 (KUNMING SINOWAY NATURAL PHARMACEUTICALS, published 2023).

Tests used:
[1] = biological target: T1, CD22 on Daudi cells (Daudi cell line expressing a high level of CD22) (UniProt P20273 20-847, limits assumed); assay: cell-based or functional assay
[2] = biological target: T1, CD22 on Daudi cells (Daudi cell line …); assay: cell-based or functional assay; remark: listed apart in the source
[3] = biological target: T2, recombinant human Siglec-2/CD22 Fc chimera protein (R&D systems, Cat #1968-SL) (human, UniProt P20273 20-687); assay: ELISA, immobilized human CD22 Fc chimera
T2 construct: Bought reagent, immobilized antigen in the ELISA; Fc part of the bought chimera not given

[4] = biological target: T2, recombinant human Siglec-2/CD22 Fc …; assay: ELISA, immobilized human CD22 Fc chimera; remark: listed apart in the source
[5] = biological target: T2, recombinant human Siglec-2/CD22 Fc …; assay: ELISA, immobilized human CD22 Fc chimera, detection with anti-Pseudomonas exotoxin A antibody
biotinylated CD22 = biotinylated CD22 (UniProt P20273 20-687, limits assumed, biotinylated (site not stated)); assay: Octet (BLI), biotinylated CD22 on streptavidin biosensors

Row | Binder | In Vitro potency assay (EC50, normalized against HA22) [1] | In Vitro potency assay (pM): EC50 of Daudi cell death, CCK-8 [2] | EC50 [3] | EC50, normalized against HA22 [4] | EC50 [5] | Kd (biotinylated CD22)
1 | Recombinant immunotoxin VH ver 1 + VL ver 4 (H1L4 by the HmLn naming of paragraph 88) (other, dsFv-PE38 heterodimer) VL: MDIQMTQSPSTLSASVGDRVTITCRASQDISNYLNWFQQRPGQSPRLLIYYTSILHSGVPSRFSGSGSGTDYTLTISSLQPEDFATYYCQQGNTLPWTFGCGTKVEIK MEVQLVESGGGLVKPGGSLRLSCAASGFAFSIYDMSWVRQAPGKCLEWVAYISSGGGTTYYPDSVKGRFTISRENAKNSLYLQMNSLKSEDTAMYYCARHSGYGTHWGVLFAYWGQGTMVTVSSKASGGPEGGSLAALTAHQACHLPLETFTRHRQPRGWEQLEQCGYPVQRLVALYLAARLSWNQVDQVIRNALASPGSGGDLGEAIREQPEQARLALTLAAAESERFVRQGTGNDEAGAANGPADSGDALLERNYPTGAEFLGDGGDVSFSTRGTQNWTVERLLQAHRQLEERGYVFVGYHGTFLEAAQSIVFGGVRARSQDLDAIWRGFYIAGDPALAYGYAQDQEPDARGRIRNGALLRVYVPRSSLPGFYRTSLTLAAPEAAGEVERLIGHPLPLRLDAITGPEEEGGRLETILGWPLAERTVVIPSAIPTDPRNVGGDLDPSSIPDKEQAISALPDYASQPGKPPREDLK | 4.12 fold of HA22 | 13.8 pM | 0.2 nM | 1.17 fold of HA22 | – | –
2 | H1L2 humanized anti-CD22 recombinant immunotoxin (VH ver 1 + VL ver 2) (other, dsFv-PE38 heterodimer, VH and VL linked by a disulfide bond) VL: MDIQMTQSTSTLSASVGDRVTITCRASQDISNYLNWYQQRPDGSVKLLIYYTSILHSGVPSRFSGSGSGTDYTLTISSLQDEDFATYFCQQGNTLPWTFGCGTKVEIK MEVQLVESGGGLVKPGGSLRLSCAASGFAFSIYDMSWVRQAPGKCLEWVAYISSGGGTTYYPDSVKGRFTISRENAKNSLYLQMNSLKSEDTAMYYCARHSGYGTHWGVLFAYWGQGTMVTVSSKASGGPEGGSLAALTAHQACHLPLETFTRHRQPRGWEQLEQCGYPVQRLVALYLAARLSWNQVDQVIRNALASPGSGGDLGEAIREQPEQARLALTLAAAESERFVRQGTGNDEAGAANGPADSGDALLERNYPTGAEFLGDGGDVSFSTRGTQNWTVERLLQAHRQLEERGYVFVGYHGTFLEAAQSIVFGGVRARSQDLDAIWRGFYIAGDPALAYGYAQDQEPDARGRIRNGALLRVYVPRSSLPGFYRTSLTLAAPEAAGEVERLIGHPLPLRLDAITGPEEEGGRLETILGWPLAERTVVIPSAIPTDPRNVGGDLDPSSIPDKEQAISALPDYASQPGKPPREDLK | 1.32 fold of HA22 | 4.58 pM | 0.54 nM | 0.81 fold of HA22 | 0.54 nM | 4.66 to 7.21 nM
3 | H2L2 humanized anti-CD22 recombinant immunotoxin (VH ver 2 + VL ver 2) (other, dsFv-PE38 heterodimer) VL: MDIQMTQSTSTLSASVGDRVTITCRASQDISNYLNWYQQRPDGSVKLLIYYTSILHSGVPSRFSGSGSGTDYTLTISSLQDEDFATYFCQQGNTLPWTFGCGTKVEIK MEVQLVESGGGLVKPGGSLRLSCAASGFAFSIYDMSWVRQTPEKCLEWVAYISSGGGTTYYPDSVKGRFTISRENAKNSLYLQMNSLKSEDTAMYYCARHSGYGTHWGVLFAYWGQGTMVTVSSKASGGPEGGSLAALTAHQACHLPLETFTRHRQPRGWEQLEQCGYPVQRLVALYLAARLSWNQVDQVIRNALASPGSGGDLGEAIREQPEQARLALTLAAAESERFVRQGTGNDEAGAANGPADSGDALLERNYPTGAEFLGDGGDVSFSTRGTQNWTVERLLQAHRQLEERGYVFVGYHGTFLEAAQSIVFGGVRARSQDLDAIWRGFYIAGDPALAYGYAQDQEPDARGRIRNGALLRVYVPRSSLPGFYRTSLTLAAPEAAGEVERLIGHPLPLRLDAITGPEEEGGRLETILGWPLAERTVVIPSAIPTDPRNVGGDLDPSSIPDKEQAISALPDYASQPGKPPREDLK | 1.23 fold of HA22 | 4.26 pM | 0.56 nM | 1.1 fold of HA22 | 0.56 nM | 5.01 to 7.02 nM
4 | Recombinant immunotoxin VH ver 1 + VL ver 3 (H1L3 by the HmLn naming of paragraph 88) (other) VL: MDIQMTQSPSTLSASVGDRVTITCRASQDISNYLNWFQQRPGQSPRRLIYYTSILHSGVPSRFSGSGSGTDYTLTISSLQPEDFATYYCQQGNTLPWTFGCGTKVEIK MEVQLVESGGGLVKPGGSLRLSCAASGFAFSIYDMSWVRQAPGKCLEWVAYISSGGGTTYYPDSVKGRFTISRENAKNSLYLQMNSLKSEDTAMYYCARHSGYGTHWGVLFAYWGQGTMVTVSSKASGGPEGGSLAALTAHQACHLPLETFTRHRQPRGWEQLEQCGYPVQRLVALYLAARLSWNQVDQVIRNALASPGSGGDLGEAIREQPEQARLALTLAAAESERFVRQGTGNDEAGAANGPADSGDALLERNYPTGAEFLGDGGDVSFSTRGTQNWTVERLLQAHRQLEERGYVFVGYHGTFLEAAQSIVFGGVRARSQDLDAIWRGFYIAGDPALAYGYAQDQEPDARGRIRNGALLRVYVPRSSLPGFYRTSLTLAAPEAAGEVERLIGHPLPLRLDAITGPEEEGGRLETILGWPLAERTVVIPSAIPTDPRNVGGDLDPSSIPDKEQAISALPDYASQPGKPPREDLK | 4.59 fold of HA22 | 57.2 pM | – | – | – | –
5 | Recombinant immunotoxin VH ver 4 + VL ver 4 (H4L4 by the HmLn naming of paragraph 88) (other, dsFv-PE38 heterodimer; The fusion entry is used here) VL: MDIQMTQSPSTLSASVGDRVTITCRASQDISNYLNWFQQRPGQSPRLLIYYTSILHSGVPSRFSGSGSGTDYTLTISSLQPEDFATYYCQQGNTLPWTFGCGTKVEIK MEVQLVESGGGLVKPGGSLRLSCAASGFAFSIYDMSWIRQAPGKCLEWVAYISSGGGTTYYPGSVKGRFTISRENAKNSLYLQMNSLRAGDTAVYYCARHSGYGTHWGVLFAYWGQGTMVTVSSKASGGPEGGSLAALTAHQACHLPLETFTRHRQPRGWEQLEQCGYPVQRLVALYLAARLSWNQVDQVIRNALASPGSGGDLGEAIREQPEQARLALTLAAAESERFVRQGTGNDEAGAANGPADSGDALLERNYPTGAEFLGDGGDVSFSTRGTQNWTVERLLQAHRQLEERGYVFVGYHGTFLEAAQSIVFGGVRARSQDLDAIWRGFYIAGDPALAYGYAQDQEPDARGRIRNGALLRVYVPRSSLPGFYRTSLTLAAPEAAGEVERLIGHPLPLRLDAITGPEEEGGRLETILGWPLAERTVVIPSAIPTDPRNVGGDLDPSSIPDKEQAISALPDYASQPGKPPREDLK | – | – | 6.73 nM | 39.1 fold of HA22 | – | –
6 | Recombinant immunotoxin VH ver 5 + VL ver 4 (H5L4 by the HmLn naming of paragraph 88) (other, dsFv-PE38 heterodimer) VL: MDIQMTQSPSTLSASVGDRVTITCRASQDISNYLNWFQQRPGQSPRLLIYYTSILHSGVPSRFSGSGSGTDYTLTISSLQPEDFATYYCQQGNTLPWTFGCGTKVEIK MEVQLVESGGGLVKPGGSLRLSCAASGFAFSIYDMSWIRQAPGKCLEWVAYISSGGGTTYYPGSVKGRFTISRENAKNSLYLQMNSLRSEDTAVYYCARHSGYGTHWGVLFAYWGQGTMVTVSSKASGGPEGGSLAALTAHQACHLPLETFTRHRQPRGWEQLEQCGYPVQRLVALYLAARLSWNQVDQVIRNALASPGSGGDLGEAIREQPEQARLALTLAAAESERFVRQGTGNDEAGAANGPADSGDALLERNYPTGAEFLGDGGDVSFSTRGTQNWTVERLLQAHRQLEERGYVFVGYHGTFLEAAQSIVFGGVRARSQDLDAIWRGFYIAGDPALAYGYAQDQEPDARGRIRNGALLRVYVPRSSLPGFYRTSLTLAAPEAAGEVERLIGHPLPLRLDAITGPEEEGGRLETILGWPLAERTVVIPSAIPTDPRNVGGDLDPSSIPDKEQAISALPDYASQPGKPPREDLK | 10.7 fold of HA22 | 34.9 pM | 2.15 nM | 12.5 fold of HA22 | – | –
7 | HA22 (moxetumomab pasudotox; HA22 VH-PE38 + HA22 VL), made in-house (other, also called CAT-8015; HA22 VH / HA22 VL) VL: MDIQMTQTTSSLSASLGDRVTISCRASQDISNYLNWYQQKPDGTVKLLIYYTSILHSGVPSRFSGSGSGTDYSLTISNLEQEDFATYFCQQGNTLPWTFGCGTKLEIK MEVQLVESGGGLVKPGGSLKLSCAASGFAFSIYDMSWVRQTPEKCLEWVAYISSGGGTTYYPDTVKGRFTISRDNAKNTLYLQMSSLKSEDTAMYYCARHSGYGTHWGVLFAYWGQGTLVTVSAKASGGPEGGSLAALTAHQACHLPLETFTRHRQPRGWEQLEQCGYPVQRLVALYLAARLSWNQVDQVIRNALASPGSGGDLGEAIREQPEQARLALTLAAAESERFVRQGTGNDEAGAANGPADSGDALLERNYPTGAEFLGDGGDVSFSTRGTQNWTVERLLQAHRQLEERGYVFVGYHGTFLEAAQSIVFGGVRARSQDLDAIWRGFYIAGDPALAYGYAQDQEPDARGRIRNGALLRVYVPRSSLPGFYRTSLTLAAPEAAGEVERLIGHPLPLRLDAITGPEEEGGRLETILGWPLAERTVVIPSAIPTDPRNVGGDLDPSSIPDKEQAISALPDYASQPGKPPREDLK | 1 fold of HA22 | 2.72 pM | 0.47 nM | 1 fold of HA22 | 0.47 nM | 4.08 to 5.81 nM
8 | Recombinant immunotoxin VH ver 2 + HA22 VL (other, dsFv-PE38 heterodimer) VL: MDIQMTQTTSSLSASLGDRVTISCRASQDISNYLNWYQQKPDGTVKLLIYYTSILHSGVPSRFSGSGSGTDYSLTISNLEQEDFATYFCQQGNTLPWTFGCGTKLEIK MEVQLVESGGGLVKPGGSLRLSCAASGFAFSIYDMSWVRQTPEKCLEWVAYISSGGGTTYYPDSVKGRFTISRENAKNSLYLQMNSLKSEDTAMYYCARHSGYGTHWGVLFAYWGQGTMVTVSSKASGGPEGGSLAALTAHQACHLPLETFTRHRQPRGWEQLEQCGYPVQRLVALYLAARLSWNQVDQVIRNALASPGSGGDLGEAIREQPEQARLALTLAAAESERFVRQGTGNDEAGAANGPADSGDALLERNYPTGAEFLGDGGDVSFSTRGTQNWTVERLLQAHRQLEERGYVFVGYHGTFLEAAQSIVFGGVRARSQDLDAIWRGFYIAGDPALAYGYAQDQEPDARGRIRNGALLRVYVPRSSLPGFYRTSLTLAAPEAAGEVERLIGHPLPLRLDAITGPEEEGGRLETILGWPLAERTVVIPSAIPTDPRNVGGDLDPSSIPDKEQAISALPDYASQPGKPPREDLK | – | – | 0.64 nM | 0.89 fold of HA22 | – | –
